{"source": "patent US7250505", "key": {"[1]": {"target": "GST-mDab1 PTB domain fusion protein (mouse)", "test": "fluorescence polarization competition against the fluorescein-labeled APP peptide, 1.1 µM PTB domain"}, "[2]": {"target": "APP synthetic peptide containing the NPXY region (non-phosphorylated) (Mus musculus (Mouse)) (UniProt P12023)", "test": "fluorescence polarization"}, "[3]": {"target": "fluorescein-labeled APP peptide (Mus musculus (Mouse)) (UniProt P12023)", "test": "fluorescence polarization, about 1 nM fluorescein-labeled APP peptide titrated with GST-PTB"}, "[4]": {"target": "APP peptide with isoleucine in place of Pro-2", "test": "substitution scan on a cellulose peptide array, radiolabeled GST-PTB"}, "[5]": {"target": "APP peptide with lysine in place of Pro-2", "test": "substitution scan on a cellulose peptide array, radiolabeled GST-PTB"}, "[6]": {"target": "APP peptide with arginine in place of Pro-2", "test": "substitution scan on a cellulose peptide array, radiolabeled GST-PTB"}, "[7]": {"target": "GST-mDab1 PTB domain fusion protein (mouse)", "test": "fluorescence polarization competition"}, "activated Src (Src527F)": {"target": "activated Src (Src527F) (UniProt P00523)", "test": "co-immunoprecipitation with anti-Src from Rat-1 fibroblasts overexpressing both, immunoblot"}}}
{"substance": "APP synthetic peptide containing the NPXY region (non-phosphorylated) (from UniProt P12023 754-770)", "values": [{"measurement": "competitor concentration of equal effect", "setting": "[1]", "value": 2, "unit": "µM"}]}
{"substance": "GST-mDab1 PTB domain fusion protein (from UniProt O75553 29-197)", "values": [{"measurement": "Kd", "setting": "[2]", "value": 500, "unit": "nM"}, {"measurement": "Kd", "setting": "[3]", "value": 550, "unit": "nM"}, {"measurement": "percent binding against the wild-type APP peptide", "setting": "[4]", "value": 40, "unit": "%"}, {"measurement": "percent binding against the wild-type APP peptide", "setting": "[5]", "value": 40, "unit": "%"}, {"measurement": "percent binding against the wild-type APP peptide", "setting": "[6]", "value": 40, "unit": "%"}]}
{"substance": "phosphorylated APP peptide (from UniProt P12023 754-770)", "values": [{"measurement": "competitor concentration of equal effect", "setting": "[1]", "value": 500, "unit": "µM"}, {"measurement": "fold reduction of affinity against the non-phosphorylated APP peptide", "setting": "[7]", "value": 250, "unit": "fold"}]}
{"substance": "mDab1 p80 (mDab555 product), tyrosine phosphorylated (from UniProt P97318 1-588)", "values": [{"measurement": "percent of the phosphorylated mDab1 of the total cell lysate immunoprecipitated with Src", "setting": "activated Src (Src527F)", "value": 1, "unit": "%"}]}
